Source: paper PMC6829862, “Gγ and Gα Identity Dictate a G-Protein Heterotrimer Plasma Membrane Targeting” (Cells, 2019)

Target: T1, mCherry–Gβ1γ2 dimer (UniProt P62873 1-340; P59768 1-71, 20-carbon geranylgeranyl lipid on the cysteine of the C-terminal CaaX motif (said of Gγ2 in general))
T1 construct: Gβ1 subunit; cDNA in pcDNA3.1+ from UMR cDNA Resource Center; FP cloned at the N-terminus; Gγ2 subunit; source: HEK 293, transiently co-transfected (mCherry–Gβ1 and Gγ2), in living cells; not shown: mCherry, N-terminal, kept
Experiment: FRET or BRET; FLIM-FRET in living transiently transfected HEK 293 cells at 37 °C; donor Citrine in Gα, acceptor mCherry on Gβ1 with the appropriate Gγ; efficiency E = 1 − τda/τd from the short lifetime component τ1 (donor alone 2.7 ± 0.1 ns), analysed only at the plasma membrane; GppNHp added to the culture did not change the signal
Conditions: partners not purified

B1: Citrine–Gαs (natural protein)
chain: MGCLGNSKTEDQRNEEKAQREANKKIEKQLQKDKQVYRATHRLLLLGAGESGKSTIVKQMRILHVNGFNGNSDGEKATKVQDIKNNLKEAIETIVAAMSNLVPPVELANPENQFRVDYILSVMNVPDFDFPPEFYEHAKALWEDEGVRACYERSNEYQLIDCAQYFLDKIDVIKQADYVPSDQDLLRCRVLTSGIFETKFQVDKVNFHMFDVGGQRDERRKWIQCFNDVTAIIFVVASSSYNMVIREDNQTNRLQEALNLFKSIWNNRWLRTISVILFLNKQDLLAEKVLAGKSKIEDYFPEFARYTTPEDATPEPGEDPRVTRAKYFIRDEFLRISTASGDGRHYCYPHFTCAVDTENIRRVFNDCRDIIQRMHLRQYELL
notes: Gαs subunit (stimulatory G-protein alpha subunit); cDNA in pcDNA3.1+ from UMR cDNA Resource Center; also called wild-type Gαs; loop-tagged Gαs; source: HEK 293, transiently transfected; in living cells (FLIM-FRET) and in cell lysate (pull-down); not shown: Citrine, internal (in place of the loop Glu71-Ser82), kept
B1 gave an FRET efficiency of 19.7%.
